# In US20250302816A1, “DISRUPTION OF EPITHELIAL BARRIERS FOR MOLECULAR DELIVERY ENHANCEMENT OR EXTRACTION OF EXTRACELLULAR FLUIDS” (The University of Nottingham, priority 2022, published 2025):
# What was measured:
# ex-vivo rat eyes = system: ex-vivo rat eyes
# Description: In order to investigate the efficacy of 3OC12-HSL as drug delivery enhancer in intact tissue, bevacizumab (250 μg/mL: […]) and aflibercept (40 mg/mL: 348 μM) were applied with and without 3OC12-HSL to ex-vivo rat eyes, and the distribution of drugs was visualised within sagittal ocular cryosections by confocal microscopy. A further set of experiments tested efficacy of 3OC12-HSL via ex vivo porcine skin.
# Six hooded rats with pigmented eyes, weighing 280-300 g and aged 7-8 weeks were provided by Bio-Support Unit at the Queen's Medical Centre, Nottingham. Experiments were designed to be performed ex-vivo, immediately post-sacrifice, during experiments supporting other studies. Tested therapies (bevacizumab (250 μg/mL), aflibercept (250 μg/mL) with/without 3OC12-HSL (200 μM) were immediately applied post-sacrifice in (50 μL) to the corneal surface of each animal for a period of 1 hour, before being washed off using ice-cold PBS. The eyeballs were enucleated, immersed in OCT, and flash-frozen in isopentane cooled by liquid N2 before being stored at −80° C. for further processing.
# OCT-embedded eyes were cut into 15 μm tissue sections using a cryostat (Leica 3050) and mounted on gelatin-coated slides, at cutting temperatures between −15 and −23° C. […]
# [1] = system: laser-induced mouse model of CNV; assay: Laser-induced mouse model of choroidal neovascularisation (CNV); type: in vivo, C57BL/6J mice; settings: day 7, topical drops to both eyes twice daily, bevacizumab 250 μg/mL
# Description: FIG. 7: Anti-angiogenic efficacy of Bevacizumab with and without 3OC12-HSL (agent) in a laser-induced mouse model of CNV.in a mouse model of choroidal neovascularisation. C57BL/6J mice (n=6 per group) were subjected to laser photocoagulation (Merilas, 532α, 450 mW, 130 ms, 75 μm, 4 lesions per eye) on day 0. Post lasering animals received twice daily topical drops to both eyes10 μL of bevacizumab (250 μg/mL) with/without 3OC12-HSL and control vehicle only) for a total of 14 days. FFA was performed on days 7 and 14 and lesion area measured using Fiji software, n=lesions (mice). All data and graphs were calculated with Fiji and GraphPad Prism v8 and statistical analysis using an t-test, with Welch's correction, * p=<0.05, ** p=<0.01. Data bars represent mean±SEM. Scale bar 200 μm.
# Six to eight week-old female C57BL/6J mice (16-20 g, Charles River, UK) were anaesthetized with an intraperitoneal (i.p.) injection of 50 mg/kg ketamine hydrochloride (Ketaset®, 100 mg/mL) and 0.5 mg/kg medetomidine hydrochloride (Sedastart®, 1 mg/mL). The pupils were dilated with a drop of 5% phenylephrine hydrochloride and 0.8% tropicamide to each eye. […] Fundus angiograms were imported into Fiji software and lesions were traced by a masked observer and lesion area was quantified over treatment time and compared between treatment groups. […]
substance,measurement,setting,value
Bevacizumab: recombinant humanized monoclonal IgG1 antibody which binds to human VEGF (MW 149 kDa),fluorescence in eye sections (CLSM),ex-vivo rat eyes,No fluorescence was detected
same,average lesion area,[1],2.86±0.47×10^4
same,penetration through skin,ex vivo porcine skin,5 mm
